From paper doi:10.1101/2024.06.13.598862 (bioRxiv, 2024)

Molecular target: full-length human tau, null cysteine variant (C291S, C322S) (human, UniProt P10636-8 1-441, C291S | C322S)
Test: co-phase separation

B1: Ydj1, yeast Hsp40 (natural protein, UniProt P25491 1-409, looked up)
chain: MVKETKFYDILGVPVTATDVEIKKAYRKCALKYHPDKNPSEEAAEKFKEASAAYEILSDPEKRDIYDQFGEDGLSGAGGAGGFPGGGFGFGDDIFSQFFGAGGAQRPRGPQRGKDIKHEISASLEELYKGRTAKLALNKQILCKECEGRGGKKGAVKKCTSCNGQGIKFVTRQMGPMIQRFQTECDVCHGTGDIIDPKDRCKSCNGKKVENERKILEVHVEPGMKDGQRIVFKGEADQAPDVIPGDVVFIVSERPHKSFKRDGDDLVYEAEIDLLTAIAGGEFALEHVSGDWLKVGIVPGEVIAPGMRKVIEGKGMPIPKYGGYGNLIIKFTIKFPENHFTSEENLKKLEEILPPRIVPAIPKKATVDECVLADFDPAKYNRTRASRGGANYDSDEEEQGGEGVQCASQ
- binding result: binds
